The values that follow come from patent publication US20240002497A1 (Merck Sharp & Dohme, published 2024).

In one test the target is T1, huNav157chim4 + β1-β2-β3 (human, UniProt Q15858 44-1988; A5A6L6 19-218; O60939 30-215; Q2KI11 23-215).
T1 construct: DII, DIII, DIV from Nav1.7α, DI from Nav1.5α; also called huNav157 chimera 4
Nature of the test: FACS, transiently transfected HEK293T cells. As to the method:
(§1) Binding of the ISVDs to cell-expressed Nav1.7α was detected via murine anti-Flag (Sigma, catalog #F1804). Briefly, cells were resuspended in FACS buffer (PBS, 10% FBS, NaN₃) and transferred to a 96-well V-bottom plate at 1×10^5 cells/well. Purified FLAG3-tagged ISVD was diluted in FACS buffer and added to the cells for 30 minutes at 4° C. […] Prior to the read-out, the samples were resuspended in 1 μg/mL propidium iodide (Sigma, catalog #P4170) to exclude dead cells. Between each step, the cells were centrifuged for 5 minutes at 200 grams and washed with 100 μL/well FACS buffer.
(§2) FACS binding studies (as described above) were performed on HEK293T cells transiently transfected with expression vectors encoding a huNav1.7α or rhNav1.7α fused at the C-terminus via a P2A viral peptide linker to a single polypeptide encoding sodium channel beta subunits Navβ1, Navβ2, and Navβ3 in tandem (β1-β2-β3; SEQ ID NO:21). Similarly, HEK293T cells transiently transfected with expression vectors encoding chimeric variants of huNav1.7α in which individual domains are replaced by their huNav1.5α counterparts (chimeras 1 to 4 in FIG. 16) or with chimeric variants of huNav1.5 in which individual domains are replaced by their huNav1.7α counterparts (chimeras 5 to 8 in FIG. 16) fused at the C-terminus via a P2A viral peptide linker to β1-β2-β3 as above. See Table 7 for description of the expression vectors encoding the chimeras, Table 21 and FIG. 16).
For orientation: A flow cytometer gives signals particle by particle.

The target of another test is T2, huNav157chim6 + β1-β2-β3 (human).
T2 construct: DI, DII, DIV from Nav1.5α, DIII from Nav1.7α; also called huNav157 chimera 6
Nature of the test: FACS, transiently transfected HEK293T cells. How it is done: as §1, §2

In another test the target is T3, huNav157chim7 + β1-β2-β3 (human).
T3 construct: DI, DIII, DIV from Nav1.5α, DII from Nav1.7α; also called huNav157 chimera 7
Nature of the test: FACS, transiently transfected HEK293T cells. How it is done: as §1, §2

The target in test [1] is T4, huNav157chim12 + β1-β2-β3 (human, UniProt Q15858 1-1988; A5A6L6 19-218; O60939 30-215; Q2KI11 23-215).
T4 construct: DI S5-S6 from Nav1.5α, rest Nav1.7α; also called huNav157 chimera 12
Nature of the test: FACS, transiently transfected HEK293T cells. How it is done: as §1, §2

In another test the target is T5, huNav157chim5 + β1-β2-β3 (human).
T5 construct: DI, DII, DIII from Nav1.5α, DIV from Nav1.7α; also called huNav157 chimera 5
Nature of the test: FACS, transiently transfected HEK293T cells. As to the method:
as §1, §2

Test [2] has as its target T6, huNav1.7α + β1-β2-β3 (human, UniProt Q15858 1-1988; A5A6L6 19-218; O60939 30-215; Q2KI11 23-215).
T6 construct: Cell line (CHO FlpIn, HEK FlpIn, transient HEK293T) is named under assay; also called huNav1.7-beta1-beta2-beta3; human Nav1.7α with Navβ1, Navβ2 and Navβ3
Nature of the test: competition FACS, HEK FlpIn cells, vs EC30 of CMYC3-F0103265B04. How it is done: Competition FACS assays were performed with CMYC3-tagged ISVD F0103265B04 or F0103275B05(N93R) affinity maturation variant on a HEK FlpIn huNav1.7α+β1−β2−β3 transgenic cell line. Briefly, cells were resuspended in FACS buffer (PBS, 2% FBS, 0.05% NaN₃) and 1×10⁵ cells/well were transferred to 96-well V-bottom plates. Cells were subsequently resuspended in a 100 μL mixture of purified ISVD (dilution series) and CMYC3-tagged ISVD F0103265B04 (at a concentration equivalent to EC30) followed by incubation for 1.5 hours at 4° C. […] Between each step, the cells were centrifuged for 5 minutes at 200 g and washed with 100 μL/well FACS buffer. Prior to the read-out, the samples were resuspended in 5 nM TOPRO3 (Molecular probes, catalog #T3605) to exclude dead cells. F0103262CO2, F0103262B06, F0103265A11, F0103265B04, F0103275B05, F0103362B08, and F0103387G04 all compete with F0103265B04 for binding to huNav1.7α, in contrast to an irrelevant control ISVD (IRR) (see Table 21 and FIG. 15A, FIG. 15B, FIG. 15C, and FIG. 15D).

Test [3] deals with T7, huNav1.7α(R277Q) + β1-β2-β3 (human).
T7 construct: polyprotein as encoded; the entry already carries R277Q; also called huNav1.7(R277Q)-beta1-beta2-beta3
Nature of the test: binding FACS, CHO FlpIn cells. As to the method:
as §1
(§3) Based on the huNav1.7α model (as described above) the following huNav1.7α-rhNav1.7α polymorphisms can be allocated to the extracellular part of DI: N146S, F276V, R277Q, E281V and V331M. The first of the residues is in DI S1-S2 whereas the latter four residues belong to DI S5-S6. FACS binding studies (as described above) were performed to stable CHO FlpIn cell lines expressing different variants of huNav1.7+β1−β2−β3 each including one of the four possible extracellular huNav1.7α-rhNav1.7α polymorphisms in the DI S5-S6 region: F276V, R277Q, E281V and V331M (Table 23 and FIGS. 22A-22F). Individual polymorphisms were each sufficient to abolish the binding of F0103265B04, F0103362B08, F010301080, and F0103262B06 to huNav1.7α, recapitulating the absence of binding on rhNav1.7α. F0103262CO2, F0103275B05 and F0103387G05 are more subtly affected in terms of EC50 or Bmax by some of the polymorphisms. None of the individual DI S5-S6 polymorphisms by themselves appear to have an impact on the binding of the two rhNav1.7α cross-reactive ISVDs F0103387G04 and F0103464B09. In addition, no effect on binding of the two ISVDs was observed (data not shown) for the three extracellular DIV VSD huNav1.7α-rhNav1.7α polymorphisms Q1530P, H1531Y and E1534D (FIG. 22G).

In test [4] the target is T8, huNav1.7α(F276V) + β1-β2-β3 (human, UniProt Q15858 1-1988; A5A6L6 19-218; O60939 30-215; Q2KI11 23-215).
T8 construct: polyprotein as encoded, P2A sites liberate the subunits; the entry already carries F276V; also called huNav1.7(F276V)-beta1-beta2-beta3
Nature of the test: binding FACS, CHO FlpIn cells. How it is done:
as §1, §3

Test [5] has as its target T9, huNav1.7α(V331M) + β1-β2-β3 (human).
T9 construct: polyprotein as encoded; the entry already carries V331M; also called huNav1.7(V331M)-beta1-beta2-beta3
Nature of the test: binding FACS, CHO FlpIn cells. As to the method: as §1, §3

The target of test [6] is T6, huNav1.7α + β1-β2-β3. Nature of the test: binding FACS, CHO FlpIn cells. As to the method:
as §1, §3

In another test the target is T10, rhNav1.7α + β1-β2-β3 (rhesus monkey).
T10 construct: also called rhNav1.7-beta1-beta2-beta3; rhesus Nav1.7α
Nature of the test: binding FACS, CHO FlpIn cells. How it is done:
as §1, §3

The target of test [7] is T11, huNav1.7α(E281V) + β1-β2-β3 (human).
T11 construct: polyprotein as encoded; the entry already carries E281V; also called huNav1.7(E281V)-beta1-beta2-beta3
Nature of the test: binding FACS, CHO FlpIn cells. How it is done: as §1, §3

B1: F0103265A11 (VHH)
VHH: EVQLVESGGGLVQPGGSLRLSCAASGMLFNANTQGWYRQAPGKQRELVAFIFSGGYTNYVDSVKGRFTISRDNAKRTMYLQMNSLKPEDSAIYYCSLSRYLGQGTLVTVSS
notes: entry includes the FLAG-HIS6 tag; also called F0103265A11 (parental)-FLAG-HIS6
In general, IC50 refers to the midpoint of a concentration-inhibition curve. B1: the binding result (with huNav157chim4 + β1-β2-β3; in the test with huNav157chim6 + β1-β2-β3; in the test with huNav157chim7 + β1-β2-β3; in test [1]; with huNav157chim5 + β1-β2-β3) was “no binding (tested: 1 µM)” throughout. Besides, the concentration for half-maximal inhibition (IC50) with huNav1.7α + β1-β2-β3 [2] was 75 nM.

B2: F0103262C02 (VHH)
VHH: EVQLVESGGGLVQAGGSLTLSCAASGLPFGLYILGWIRRAPGKERDFVAAISRSGRDTVYANSVKGRFTISRDNAKNMVYLRMDNLRPEDTAAYYCAVDSVPRGTPTITESEYAIWGQGTLVTVSS
notes: entry includes the FLAG-HIS6 tag; also called F0103262C02 (parental)-FLAG-HIS6; F103262CO2
Usually EC50 stands for the midpoint of the concentration-response curve. For the molecule B2, the binding result is given as “no binding (tested: 1 µM)” with huNav157chim4 + β1-β2-β3; “no binding (tested: 1 µM)” in the test with huNav157chim6 + β1-β2-β3; “no binding (tested: 1 µM)” with huNav157chim7 + β1-β2-β3; “no binding (tested: 1 µM)” in [1]; “no binding (tested: 1 µM)” with huNav157chim5 + β1-β2-β3; “no binding” with rhNav1.7α + β1-β2-β3. Moreover, the concentration giving a half-maximal response (EC50) in test [3] amounted to 450 nM; in test [4] it was 210 nM; in [5] it was 86 nM; with huNav1.7α + β1-β2-β3 [6], 290 nM; in test [7] it was 240 nM. The IC50 in the test with huNav1.7α + β1-β2-β3 [2] was 530 nM.

B3: F0103265B04 (VHH)
VHH: EVQLVESGGGLVQPGGSLRLSCAAPSFIFSNNYMEWYRQAPGKQRDWVARITGRGNTNYLDSVKGRFTISRDDAKNTVYLEIDSLKPEDTAVYYCSALWYGGRAWGKGTLVTVSS
notes: entry includes the FLAG-HIS6 tag; also called F0103265B04 (parental)-FLAG-HIS6
B3: the binding result in the test with huNav157chim4 + β1-β2-β3 is “no binding (tested: 1 µM)”; with huNav157chim6 + β1-β2-β3 it was “no binding (tested: 1 µM)”; in the test with huNav157chim7 + β1-β2-β3, “no binding (tested: 1 µM)”; in test [1] it was “no binding (tested: 1 µM)”; with huNav157chim5 + β1-β2-β3, “no binding (tested: 1 µM)”; in test [4], “no binding”. The binding result (in test [5]; with rhNav1.7α + β1-β2-β3) was “no binding” throughout. The 50% effective concentration (EC50) stood at 7.1 nM in test [3], 9.2 nM with huNav1.7α + β1-β2-β3 [6] and 7.5 nM in [7]. Also, the half-maximal inhibitory concentration (IC50) in the test with huNav1.7α + β1-β2-β3 [2] turned out to be 18 nM.

B4: F0103262B06 (VHH)
VHH: EVQLVESGGGLVQPGGSLRLSCAGSTRTFSTYAMGWFRQAPGREREFVAHINFSGSSTRYADSVKGRFTISRDNAKNMGYLQMNSLKPEDTAVYYCAARWVAGPPRYDYEYWGQGTLVTVSS
notes: entry includes the FLAG-HIS6 tag; also called F0103262B06 (parental)-FLAG-HIS6
For B4, the binding result with huNav157chim4 + β1-β2-β3 was “no binding (tested: 1 µM)”; in the test with huNav157chim6 + β1-β2-β3, “no binding (tested: 1 µM)”; with huNav157chim7 + β1-β2-β3, “no binding (tested: 1 µM)”; in [1] it was “no binding (tested: 1 µM)”; with huNav157chim5 + β1-β2-β3, “no binding (tested: 1 µM)”; in [3] it was “no binding”. The binding result (in test [4]; with rhNav1.7α + β1-β2-β3; in test [7]) was “no binding” in each case. For the same molecule, the concentration giving a half-maximal response (EC50) stood at 63 nM in [5] and 47 nM in the test with huNav1.7α + β1-β2-β3 [6]. Further, the IC50 with huNav1.7α + β1-β2-β3 [2] was found to be 49 nM.
